The source of these data is paper PMC4554539 (2016).

What is called Kd is a measure of binding affinity in units of concentration. Low readings indicate higher affinity, high ones lower affinity.

Assay [1] concerns the target T1, Na-Cl co-transporter (NCC) (Mus musculus, UniProt P59158).
T1 chain: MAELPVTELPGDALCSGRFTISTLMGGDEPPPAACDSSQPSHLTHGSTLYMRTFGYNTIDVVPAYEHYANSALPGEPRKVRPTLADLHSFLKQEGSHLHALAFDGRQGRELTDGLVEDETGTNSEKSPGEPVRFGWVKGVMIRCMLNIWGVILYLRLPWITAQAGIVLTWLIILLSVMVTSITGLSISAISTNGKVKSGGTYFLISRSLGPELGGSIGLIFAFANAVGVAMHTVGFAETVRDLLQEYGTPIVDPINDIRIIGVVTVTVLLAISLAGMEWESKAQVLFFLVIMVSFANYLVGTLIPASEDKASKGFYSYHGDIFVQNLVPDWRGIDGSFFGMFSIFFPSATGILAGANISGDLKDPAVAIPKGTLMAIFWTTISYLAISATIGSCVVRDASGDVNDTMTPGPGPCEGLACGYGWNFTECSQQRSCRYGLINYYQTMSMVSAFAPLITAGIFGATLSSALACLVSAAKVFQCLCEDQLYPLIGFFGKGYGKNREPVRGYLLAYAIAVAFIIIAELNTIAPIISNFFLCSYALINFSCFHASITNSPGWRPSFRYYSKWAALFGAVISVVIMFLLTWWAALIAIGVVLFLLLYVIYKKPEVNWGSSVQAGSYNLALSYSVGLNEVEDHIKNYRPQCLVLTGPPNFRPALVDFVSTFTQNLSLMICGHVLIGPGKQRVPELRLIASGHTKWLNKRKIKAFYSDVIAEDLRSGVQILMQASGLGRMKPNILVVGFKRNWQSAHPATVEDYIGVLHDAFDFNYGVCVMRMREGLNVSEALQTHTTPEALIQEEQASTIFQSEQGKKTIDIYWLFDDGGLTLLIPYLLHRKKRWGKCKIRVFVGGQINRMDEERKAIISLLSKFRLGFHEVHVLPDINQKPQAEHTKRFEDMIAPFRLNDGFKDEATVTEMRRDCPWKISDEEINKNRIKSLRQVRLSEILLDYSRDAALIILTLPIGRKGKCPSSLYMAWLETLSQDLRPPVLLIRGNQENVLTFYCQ
Put plainly: FITC-IL18 binding to NCC-transfected COS-7 cell membranes, Scatchard analysis.

The target in assay [2] is T1, Na-Cl co-transporter (NCC).

Where two headings read alike, the source gives them in different places.

B1: IL-18 (protein)
chain: NFGRLHCTTAVIRNINDQVLFVDKRQPVFEDMTDIDQSASEPQTRLIIYMYKDSEVRGLAVTLSVKDSKMSTLSCKNKIISFEEMDPPENIDDIQSDLIFFQKRVPGHNKMEFESSLYEGHFLACQKEDDAFKLILKKKDENGDKSVMFTLTNLHQS
modifications: FITC-conjugated IL18
As to B1, the Kd in assay [1] is 17.3 nM; in assay [2] it was 21.4 nM.
